The source of these data is publication PMC4117581, “Strain-Specific Variation of the Decorin-Binding Adhesin DbpA Influences the Tissue Tropism of the Lyme Disease Spirochete” (PLoS Pathogens, 2014).

Assay [1] concerns the target Recombinant human decorin (human) (UniProt P07585). Description: SPR; Biacore 3000; 10 µg biotinylated decorin on an SA chip; 0-500 nM DbpA injected at 10 µL/min, 25°C; control flow cell with PBS; 1:1 Langmuir model. On the technique in general: Surface plasmon resonance follows binding to a sensor surface in real time, without labels.
Assay [2] shares this target. Nature of the assay: ELISA; quantitative ELISA; 1 µg decorin coated on microtiter wells; 0.03125-2 µM histidine-tagged DbpA added; detected with mouse anti-histidine tag and HRP anti-mouse IgG; KD from a fit of the curve. (In general: In an ELISA, binding on a coated surface is turned into a signal by an enzyme label.)
For assay [3], the target named is T1, Recombinant human decorin (human, UniProt P07585 31-359, biotin (biotinylated decorin on the SA chip in the SPR experiment; sites not stated)).
T1 construct: Decorin, human, recombinant; Decorin is a proteoglycan that carries dermatan sulfate; Secreted from CHO cells, so probably the mature protein (surmise); source: stably transfected Chinese hamster ovary cells (ATCC CCL 61), purified; gift from MedImmune
T1 sequence (P07585 31-359): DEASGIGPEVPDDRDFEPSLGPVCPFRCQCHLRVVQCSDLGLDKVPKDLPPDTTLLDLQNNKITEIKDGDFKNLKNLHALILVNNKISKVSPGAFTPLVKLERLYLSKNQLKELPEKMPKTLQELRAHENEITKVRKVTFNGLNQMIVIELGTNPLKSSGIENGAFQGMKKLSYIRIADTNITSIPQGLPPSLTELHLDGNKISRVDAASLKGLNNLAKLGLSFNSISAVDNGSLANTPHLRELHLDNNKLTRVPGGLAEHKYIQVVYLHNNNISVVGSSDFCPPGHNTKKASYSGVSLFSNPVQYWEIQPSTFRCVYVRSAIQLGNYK
Nature of the assay: SPR; Biacore 3000; 10 µg biotinylated decorin on an SA chip; 0-500 nM DbpA injected at 10 µL/min, 25°C; control flow cell with PBS; 1:1 Langmuir model. The note with it: both partners purified.

In assay [4] the target is T1, Recombinant human decorin. Nature of the assay: ELISA; quantitative ELISA; 1 µg decorin coated on microtiter wells; 0.03125-2 µM histidine-tagged DbpA added; detected with mouse anti-histidine tag and HRP anti-mouse IgG; KD from a fit of the curve. The note with it: both partners purified.

Chain of Recombinant human decorin (human) (P07585 31-359): as above

In general, Kd refers to the free concentration of one partner at which half of the binding sites on the other are occupied at equilibrium, for simple one-to-one binding. A word on the koff: it is the rate constant with which the complex falls apart. The term kon denotes the rate constant with which the complex forms. On to “DbpA297, recombinant histidine-tagged DbpA of B. burgdorferi strain 297 (from UniProt O50917 30-187) (natural protein)”, for which, in assay [1], the Kd came to 300 nM, the koff was 0.1 s⁻¹ and the kon was 351000 M⁻¹ s⁻¹. The Kd in assay [2] was determined as 140 nM.

For the molecule “DbpAPBr, recombinant histidine-tagged DbpA of B. garinii strain PBr (natural protein)”, in assay [1], the Kd worked out at 90 nM, the koff turned out to be 0.13 s⁻¹ and the kon stood at 1.83e+06 M⁻¹ s⁻¹. In addition, the Kd in assay [2] amounted to 60 nM.

On to “DbpA_(B356), recombinant histidine-tagged DbpA of B. burgdorferi strain B356 (natural protein)”, for which, in assay [1], the dissociation constant Kd came to 840 nM, the koff was determined as 0.06 s⁻¹ and the kon was found to be 66000 M⁻¹ s⁻¹. Further, in assay [2], the dissociation constant (Kd) was 950 nM.

“DbpA_(N40-D10/E9), recombinant histidine-tagged DbpA of B. burgdorferi strain N40-D10/E9 (from UniProt O50917 30-191) (natural protein)”: in assay [1], the Kd worked out at 710 nM, the koff is 0.07 s⁻¹ and the kon amounted to 97000 M⁻¹ s⁻¹. The Kd in assay [2] came to 850 nM.

For the molecule “DbpA_(VS461), recombinant histidine-tagged DbpA of B. afzelii strain VS461 (natural protein)”, in assay [1], the Kd amounted to 260 nM, the koff stood at 0.04 s⁻¹ and the kon was 152000 M⁻¹ s⁻¹. Further, the Kd in assay [2] came to 290 nM.

B1: DbpAB31, recombinant histidine-tagged DbpA of B. burgdorferi strain B31 (natural protein)
chain: ATKIRLERSAKDITDEIDAIKKDAALKGVNFDAFKDKKTGSGVSENPFILEAKVRATTVAEKFVIAIEEEATKLKETGSSGEFSAMYDLMFEVSKPLQKLGIQEMTKTVSDAAEENPPTTAQGVLEIAKKMREKLQRVHTKNYCTLKKKENSTFTDEKCKNN
For the molecule B1, in assay [3], the Kd came out at 280 nM, the off-rate (koff) was determined as 0.11 s⁻¹ and the kon was found to be 417000 M⁻¹ s⁻¹. Besides, the Kd in assay [4] amounted to 210 nM.
